Patent US20190309079A1 (Regeneron, published 2019)

B1: H4H16650P2 (antibody, V domains shown)
VH: QVQLVESGGGVVQPGKSLRLSCVASGFTFSSDAMYWVRQAPGKGLEWVAVIYYDGNYQYYEDSVKGRFTISRDNSQNTLDLQMNSLRVDDTAVYFCARLNWDYWYLDLWGRGTLVTVSS
VL: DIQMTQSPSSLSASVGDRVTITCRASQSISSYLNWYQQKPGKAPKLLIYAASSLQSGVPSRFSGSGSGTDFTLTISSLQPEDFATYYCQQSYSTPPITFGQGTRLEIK
B2: H4H17319P2 (antibody, V domains shown)
VH: QVQLVESGGSVVQPGRSLRLSCAASGFTFSTYAMYWVRQTPGKGLEWVAVLYSDGSNKYYIDSVKGRFTISRDTSTNTLYLQMSSLRADDSALYYCARLNWDYWYFDLWGRGTLVTVSS
VL: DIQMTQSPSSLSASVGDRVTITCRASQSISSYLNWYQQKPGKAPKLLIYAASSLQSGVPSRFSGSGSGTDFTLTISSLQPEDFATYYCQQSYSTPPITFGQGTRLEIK
notes: also called REGN4461
B3: H4H18417P2 (antibody, V domains shown)
VH: QVQLVESGGGVVQPGRSLRLSCAASGFTFSTYGMHWVRQAPGKGLEWVSVISYDESNKYYADSVKGRFTISRDNSKNALYLQMNSLRNEDTAVYYCARDRPFGLVTGWFDPWGQGTLVTVSS
VL: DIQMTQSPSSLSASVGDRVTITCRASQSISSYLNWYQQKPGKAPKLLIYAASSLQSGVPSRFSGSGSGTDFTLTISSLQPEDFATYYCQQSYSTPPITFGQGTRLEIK
B4: H4H18445P2 (antibody, human IgG4, V domains shown)
VH: QVQLQESGPGLVKPSQTLSLTCTVSGGSISSGGDYWSWIRQLPGKGLEWIGYIYYSGSAYYNPSLKSRGTISIDTSKNQFSLKLTSVTAADTAVYFCVKLRFLEWFLGGWFGPWGQGTLVTVSS
VL: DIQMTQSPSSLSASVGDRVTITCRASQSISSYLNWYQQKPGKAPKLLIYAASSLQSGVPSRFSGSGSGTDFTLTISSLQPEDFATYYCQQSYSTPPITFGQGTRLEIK
notes: human IgG4 Fc
B5: H4H18449P2 (antibody, human IgG4, V domains shown)
VH: EVQLVESGGGLVQPGGSLRLSCVASGFTFNKYDMHWVRQTTGKGLEWVSGIDTDGDTYYPGSVKGRFTISRENAENSLYLQMNGLRVGDTAVYYCARWPWSGFYGAFDIWGQGTMVTVSS
VL: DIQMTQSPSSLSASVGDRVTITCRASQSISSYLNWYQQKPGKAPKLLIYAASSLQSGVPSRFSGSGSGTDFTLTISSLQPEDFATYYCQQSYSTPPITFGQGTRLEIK
notes: human IgG4 Fc
B6: H4H18438P2 (antibody, V domains shown)
VH: QVQLVESGGGVVQPGRSLRLSCAASGFSFNTYGMHWVRQAPGKGLEWVTIIWYDGSIKYYADSVKGRFTISRDNSKNTLYLQMNSLRAEDTAVYYCARGGYSGYLYFDYWGQGTLVTVSS
VL: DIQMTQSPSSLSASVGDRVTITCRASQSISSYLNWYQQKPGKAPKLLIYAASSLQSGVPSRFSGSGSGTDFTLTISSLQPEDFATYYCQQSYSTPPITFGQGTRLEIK
B7: H4H18446P2 (antibody, human IgG4, V domains shown)
VH: EVQLVESGGGLVQPGGSLRLSCAASGFTFSNYGMTWVRQAPGKGLEWVSAITGGGGSTYYSNSVKGRFTISRDNSKNTVYLRMNSVRAEDTAVYYCAKYKWNFVDDWGQGTTVTVSS
VL: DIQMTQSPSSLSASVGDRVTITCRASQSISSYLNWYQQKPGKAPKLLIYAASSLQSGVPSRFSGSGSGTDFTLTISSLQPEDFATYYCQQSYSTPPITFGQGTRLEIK
notes: human IgG4 Fc
B8: H4H16679P2 (antibody, V domains shown)
VH: QVQLVESGGGVVQPGRSLRLSCTASGFTFSSYAMYWVRQAPGKGLEWVSVIYYDGSYKYYADSVKGRFTISRDNSKNTLYLQMDSLRAEDTAVYYCASYNWNYWYFDFWGRGTLVTVSS
VL: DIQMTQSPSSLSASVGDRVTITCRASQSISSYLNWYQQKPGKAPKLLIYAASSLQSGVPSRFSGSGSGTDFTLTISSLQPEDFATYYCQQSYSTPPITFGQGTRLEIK
B9: H4H17321P2 (antibody, V domains shown)
VH: QVQLVESGGGVVQPGRSLRLSCEASGFSSSDNAMYWVRQAPGKGLEWVSVIYHDGSYKYYEDSVKGRFTIARDNSKNTLYLQMNSLRAEDTAVYYCARYNWNHWYFDVWGRGTLVTVSS
VL: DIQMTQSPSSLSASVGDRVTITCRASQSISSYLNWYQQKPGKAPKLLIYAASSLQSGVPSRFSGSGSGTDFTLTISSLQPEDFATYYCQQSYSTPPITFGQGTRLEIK

Tests used:
[1] = target: T1, extracellular domain of human LEPR (amino acids 22-839 of P48357, Isoform B) with N-terminal myc-myc tag, … (human, UniProt P48357 22-839, GPI anchor at the C-terminus); assay: FACS, 10 nM Ab, HEK293/hLEPR-GPI, 1 uM Leptin
T1 construct: also called HEK293/Mycx2-hLepR(Ecto)-GPI anchored cells
T1 sequence: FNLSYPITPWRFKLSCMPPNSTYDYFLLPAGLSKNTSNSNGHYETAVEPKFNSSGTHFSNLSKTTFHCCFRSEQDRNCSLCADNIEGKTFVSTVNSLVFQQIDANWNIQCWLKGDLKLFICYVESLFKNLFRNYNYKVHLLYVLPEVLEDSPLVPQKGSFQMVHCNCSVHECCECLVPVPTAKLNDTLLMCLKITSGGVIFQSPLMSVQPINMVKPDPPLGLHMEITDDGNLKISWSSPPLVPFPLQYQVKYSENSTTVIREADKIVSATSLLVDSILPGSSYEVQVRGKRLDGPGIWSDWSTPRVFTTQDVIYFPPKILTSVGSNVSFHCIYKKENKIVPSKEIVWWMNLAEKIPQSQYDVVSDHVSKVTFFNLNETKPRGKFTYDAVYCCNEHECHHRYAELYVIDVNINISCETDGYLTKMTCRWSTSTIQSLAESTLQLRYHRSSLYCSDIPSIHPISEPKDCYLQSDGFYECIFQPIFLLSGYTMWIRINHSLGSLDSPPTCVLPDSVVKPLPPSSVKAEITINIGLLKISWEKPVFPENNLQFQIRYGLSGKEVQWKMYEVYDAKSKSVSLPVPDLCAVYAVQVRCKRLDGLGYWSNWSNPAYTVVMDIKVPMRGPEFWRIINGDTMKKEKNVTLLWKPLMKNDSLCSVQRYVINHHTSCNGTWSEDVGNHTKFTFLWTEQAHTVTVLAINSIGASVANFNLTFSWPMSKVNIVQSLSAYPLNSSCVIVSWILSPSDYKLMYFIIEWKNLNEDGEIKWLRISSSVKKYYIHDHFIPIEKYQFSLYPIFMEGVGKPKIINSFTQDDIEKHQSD
Description: For the FACS analysis, HEK293 parental cells and HEK293/hLEPR-GPI cells were dissociated and plated onto 96-well v-bottom plates at 5×10⁵ cells/well in PBS containing 2% FBS (FACS buffer). […] Cells were subsequently fixed using BD CytoFix™ (Becton Dickinson, #554655), filtered, and analyzed on a HyperCyt Flow Cytometer (Beckman Coulter). Unstained and secondary antibody alone controls were also tested for all cell lines. The results were analyzed using ForeCyt (IntelliCyt) and FlowJo version 10 software to determine the geometric means of fluorescence for viable cells. The geometric mean of fluorescence for each sample was then normalized to the geometric mean of unstained cells to obtain relative binding per condition referred to as “binding ratios”, and these binding ratios were recorded for each antibody tested.

human LEPR Ig (D3)-MMH = target: T2, human LEPR Ig (D3)-MMH (human, UniProt P48357 340-427, limits assumed); assay: Luminex, myc-captured protein on beads
T2 construct: domain: Ig (D3)
T2 sequence (looked up): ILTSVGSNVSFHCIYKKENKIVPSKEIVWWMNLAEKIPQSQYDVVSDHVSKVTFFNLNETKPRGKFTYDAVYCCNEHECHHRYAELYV
Description: (§1) Aliquots of microspheres with immobilized anti-myc monoclonal antibodies, prepared as described above, were added individually to 1 mL of the each of these protein supernatants. The microspheres were gently mixed, incubated for two hours at 25° C., washed twice with 1 mL of DBPS, centrifuged to remove the supernatant and finally resuspended in 1 mL of DPBS buffer. […] of anti-myc IgG coupled microspheres from individual reactions with full length human LEPR and with each of the human LEPR domain proteins were withdrawn and mixed together in 3.6 mL of PBS+20 mg/mL BSA+0.05% sodium azide (blocking buffer).
(§2) From this mixed pool, 75 μL of microspheres were plated per well on a 96 well filter plate (Millipore, Cat. No: MSBVN1250) and mixed with 25 μL of individual anti-human LEPR monoclonal antibodies (0.5 or 5 μg/mL), incubated for two hours at 25° C. and then washed twice with 200 μL of DPBS with 0.05% Tween 20 (washing buffer). […] After 30 minutes, the samples were washed twice with 200 µL of washing buffer and resuspended in 150 μL of wash buffer. The Median Fluorescence intensity (MFI) of the microspheres was measured in a Luminex Analyzer.

[2] = target: T3, human LEPR CRH1 (D1,D2)-MMH (human, UniProt P48357 22-339, limits assumed); assay: Luminex, myc-captured protein on beads
T3 construct: domain: CRH1 (D1,D2)
T3 sequence (looked up): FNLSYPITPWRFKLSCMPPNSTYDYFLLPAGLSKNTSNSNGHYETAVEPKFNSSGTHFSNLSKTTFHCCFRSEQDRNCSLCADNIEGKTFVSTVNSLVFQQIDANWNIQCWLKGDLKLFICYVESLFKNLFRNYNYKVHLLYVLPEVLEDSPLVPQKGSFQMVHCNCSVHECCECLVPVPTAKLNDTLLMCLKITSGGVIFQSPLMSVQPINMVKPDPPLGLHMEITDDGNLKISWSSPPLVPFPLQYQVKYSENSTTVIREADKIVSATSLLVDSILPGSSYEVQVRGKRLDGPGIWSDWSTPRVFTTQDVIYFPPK
Description: as §1, §2

[3] = target: T4, human LEPR CRH1-Ig (D2,D3)-MMH (human, UniProt P48357 230-427, limits assumed); assay: Luminex, myc-captured protein on beads
T4 construct: domain: CRH1-Ig (D2,D3)
T4 sequence (looked up): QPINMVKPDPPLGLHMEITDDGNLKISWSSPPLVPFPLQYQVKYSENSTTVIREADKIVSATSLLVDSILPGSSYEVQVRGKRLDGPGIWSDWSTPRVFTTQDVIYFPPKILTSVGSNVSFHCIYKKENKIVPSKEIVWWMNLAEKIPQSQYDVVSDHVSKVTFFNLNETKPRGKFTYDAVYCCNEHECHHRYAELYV
Description: as §1, §2

human LEPR FNIII-MMH = target: T5, human LEPR FNIII-MMH (human, UniProt P48357 636-839, limits assumed); assay: Luminex, myc-captured protein on beads
T5 construct: domain: FNIII
T5 sequence (looked up): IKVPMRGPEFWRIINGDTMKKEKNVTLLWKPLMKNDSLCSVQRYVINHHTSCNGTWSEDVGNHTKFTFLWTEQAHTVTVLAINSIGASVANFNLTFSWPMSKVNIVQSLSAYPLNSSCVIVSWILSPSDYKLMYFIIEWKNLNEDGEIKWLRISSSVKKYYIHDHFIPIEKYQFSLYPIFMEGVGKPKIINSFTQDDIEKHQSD
Description: as §1, §2

Binding Ratio (normalized to unstained) [1] [fold]	Luminex MFI (human LEPR Ig (D3)-MMH) [MFI]	Luminex MFI [2] [MFI]	Luminex MFI [3] [MFI]	Luminex MFI (human LEPR FNIII-MMH) [MFI]	Binder
3120	10	4720	74	6	B1
–	8	1250	14	20	B2
2600	17	16000	5500	14	B3
2490	19	30	40	230	B4
3110	24	2930	42	13	B5
2410	30	18900	8880	25	B6
–	25	682	–	32	B7
2220	14	4390	34	10	B8
–	7	2650	15	40	B9
